Source: patent US20130195872A1 (NOVIMMUNE S A, published 2013)

T1: human IL-17A homodimer (human, UniProt Q16552 20-155, limits assumed)
T1 sequence (looked up): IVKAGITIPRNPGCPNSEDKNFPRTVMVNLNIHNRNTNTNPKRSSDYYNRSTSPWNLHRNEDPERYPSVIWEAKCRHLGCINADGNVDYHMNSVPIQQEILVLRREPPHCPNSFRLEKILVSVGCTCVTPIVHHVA

T2: human IL-17A/IL-17F heterodimer (human, UniProt Q16552 24-155; Q96PD4 31-163, limits assumed)
T2 sequence (looked up) 1: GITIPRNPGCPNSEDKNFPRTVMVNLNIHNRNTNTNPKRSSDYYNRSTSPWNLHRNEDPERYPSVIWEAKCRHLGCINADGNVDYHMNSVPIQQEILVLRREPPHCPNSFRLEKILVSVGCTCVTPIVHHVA
T2 sequence (looked up) 2: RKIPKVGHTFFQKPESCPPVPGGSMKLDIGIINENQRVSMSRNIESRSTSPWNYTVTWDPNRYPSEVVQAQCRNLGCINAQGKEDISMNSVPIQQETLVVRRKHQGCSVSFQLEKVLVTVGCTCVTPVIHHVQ

T3: cynomolgus IL-17F homodimer (cynomolgus, UniProt G7P4V0 31-163)
T3 sequence: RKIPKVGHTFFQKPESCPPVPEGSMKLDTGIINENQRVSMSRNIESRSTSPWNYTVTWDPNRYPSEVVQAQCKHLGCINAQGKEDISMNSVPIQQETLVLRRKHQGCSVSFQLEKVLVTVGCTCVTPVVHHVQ

T4: cynomolgus IL-17A homodimer (cynomolgus, UniProt A0A2K5TTB0 20-155)
T4 sequence: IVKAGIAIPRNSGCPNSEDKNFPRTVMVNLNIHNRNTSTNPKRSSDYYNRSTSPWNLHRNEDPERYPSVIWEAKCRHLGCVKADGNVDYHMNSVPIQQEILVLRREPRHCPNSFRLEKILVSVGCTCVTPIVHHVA

T5: rat IL-17A homodimer (rat, UniProt Q61453 18-150, limits assumed)
T5 sequence (looked up): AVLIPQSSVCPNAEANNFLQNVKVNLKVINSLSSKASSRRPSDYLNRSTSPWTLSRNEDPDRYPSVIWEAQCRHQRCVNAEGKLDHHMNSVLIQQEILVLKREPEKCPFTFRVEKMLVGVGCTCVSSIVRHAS

T6: mouse IL-17F homodimer (mouse, UniProt Q7TNI7 29-161, limits assumed)
T6 sequence (looked up): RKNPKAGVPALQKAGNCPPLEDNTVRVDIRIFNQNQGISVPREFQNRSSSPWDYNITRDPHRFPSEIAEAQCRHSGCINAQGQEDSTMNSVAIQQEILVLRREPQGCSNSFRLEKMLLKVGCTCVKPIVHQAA

T7: mouse IL-17A homodimer (mouse, UniProt Q62386 26-158, limits assumed)
T7 sequence (looked up): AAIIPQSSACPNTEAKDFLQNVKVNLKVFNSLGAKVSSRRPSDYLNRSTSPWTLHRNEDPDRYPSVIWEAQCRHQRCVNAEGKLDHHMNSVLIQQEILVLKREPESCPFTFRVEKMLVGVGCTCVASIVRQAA


Assays:
human IL-17A homodimer [1] = target: T1, human IL-17A homodimer; experiment: cell-based or functional assay
[2] = target: T2, human IL-17A/IL-17F heterodimer; experiment: cell-based or functional assay
[3] = target: T3, cynomolgus IL-17F homodimer; experiment: cell-based or functional assay
[4] = target: T4, cynomolgus IL-17A homodimer; experiment: cell-based or functional assay
[5] = target: cynomolgus IL-17A/IL-17F heterodimer (cynomolgus); experiment: cell-based or functional assay
rat IL-17A homodimer = target: T5, rat IL-17A homodimer; experiment: cell-based or functional assay
human IL-17A homodimer [6] = target: T1, human IL-17A homodimer; experiment: cell-based or functional assay; remark: listed apart in the source
[7] = target: T4, cynomolgus IL-17A homodimer; experiment: cell-based or functional assay; remark: listed apart in the source
human IL-17A homodimer [8] = target: T1, human IL-17A homodimer; experiment: SPR Biacore, mAb captured, cytokine as analyte
Method: (§1) The affinity and binding kinetics of huIL-17F cross-reactive antibodies were characterized on a Biacore 2000 instrument (Biacore AB, Uppsala, Sweden). […] This surface was used to capture huIL-17A/F antibodies. The surface was regenerated after each cycle by injection of 10 mM glycine pH=1.5 at 20 μL/min, for 30 s followed by 1 min of stabilization time in HBS-EP buffer (Biacore AB, Uppsala, Sweden).
(§2) All solutions were diluted in HBS-EP buffer. Injection was performed at 75 μl/min for 3 min followed by 12 min of dissociation time and the temperature was set at 25° C.

[9] = target: T2, human IL-17A/IL-17F heterodimer; experiment: SPR Biacore, mAb captured, cytokine as analyte
Method: as §1, §2

mouse IL-17F homodimer = target: T6, mouse IL-17F homodimer; experiment: cell-based or functional assay
mouse IL-17A homodimer = target: T7, mouse IL-17A homodimer; experiment: cell-based or functional assay

| IC50, IL-6 secretion by MEF cells, cytokine at 5 ng/ml (human IL-17A homodimer [1]) [nM] | IC50, IL-6 secretion by MEF cells, cytokine at 17.5 ng/ml [2] [nM] | IC50, IL-6 secretion by MEF cells, cytokine at 25 ng/ml [3] [nM] | IC50, IL-6 secretion by MEF cells, cytokine at 5 ng/ml [4] [nM] | IC50, IL-6 secretion by MEF cells, cytokine at 25 ng/ml [5] [nM] | IC50, IL-6 secretion by MEF cells, cytokine at 5 ng/ml (rat IL-17A homodimer) [nM] | IC50, IL-6 secretion by HFFF2 human fibroblasts, cytokine at 25 ng/ml (human IL-17A homodimer [6]) [nM] | IC50, IL-6 secretion by HFFF2 human fibroblasts, cytokine at 25 ng/ml [7] [nM] | Kd (human IL-17A homodimer [8]) [nM] | Kd [9] [nM] | IC50, IL-6 secretion by MEF cells, cytokine at 50 ng/ml (mouse IL-17F homodimer) [nM] | IC50, IL-6 secretion by MEF cells, cytokine at 5 ng/ml (mouse IL-17A homodimer) [nM] | Binder |
| --- | --- | --- | --- | --- | --- | --- | --- | --- | --- | --- | --- | --- |
| 1.1 | 31 | 130 | 3 | 15 | > 1000 | 4.2 | 6.6 | 0.0594 | 0.0981 |  |  | 30D12 antibody (antibody, IgG1, V domains shown, Fully human monoclonal antibody; also called 30D12 IgG1) VH: QVQLVQSGAEVKKPGASVKVSCKASGYTFTSYDINWVRQATGQGLEWMGWMNPDSGVIRYAQKFQGRVTMTRNTSISTAYMELNSLRSEDTAVYYCAREWFGELPSYYFYSGMDVWGQGTTVTVSS VL: EIVLTQSPATLSLSPGERATLSCRASQSVSSYLAWYQQKPGQAPRLLIYDASNRATGIPARFSGSGSGTDFTLTISSLEPEDFAVYYCQQRSNWPPTFGPGTKVDIK |
| 33 | 13 | 3.2 | 13 |  | > 1000 |  |  |  |  | 4.2 | > 1000 | 12B12 antibody (antibody, IgG4, V domains shown) VH: QVQLVQSGAEVKKPGSSVKVSCKASGGTLSSYAFSWVRQAPGQGLEWMGGIIPFFGTVNYAQKFQGRVTITADESTNTAYMELSSLRSEDTAVYYCARDRDYYGLGSPLHYYGLDVWGQGTTVTVSS VL: EIVLTQSPDFQSVTPKEKVTITCRASQSIGSSLHWYQQKPDQSPKLLIKYASQSFSGVPSRFSGSGSGTDFTLTINSLEAEDAAAYYCHQSSSLPWTFGQGTKVEIK |
| 180 | 160 | 15 | 140 |  | > 1000 |  |  |  |  | 22 | > 1000 | 15B7 antibody (antibody, IgG4, V domains shown) VH: QVQLVQSGAEVKKPGSSVKVSCKASGGTLSSYAFSWVRQAPGQGLEWMGGIIPFFGTAHYAQKFQGRVTITADESTNTAYMELSSLRSEDTAVYYCARDRDYYGSGSPFHFSGLDVWGQGTTVTVSS VL: EIVLTQSPDFQSVTPKEKVTITCRASQSIGSSLHWYQQKPDQSPKLLIKYASQSFSGVPSRFSGSGSGTDFTLTINSLEAEDAAAYYCHQSSSLPWTFGQGTKVEIK |
| 9.8 | 11 | 5.2 | 4.7 | 16 | > 1000 | 14 | 15 | 0.0895 | 0.402 | 4 | > 1000 | 39F12 antibody (antibody, IgG4, V domains shown, also called Mab06a; 39F12 IgG4) VH: QVQLVQSGAEVKKPGSSVKVSCKASGGTLSSYAFSWVRQAPGQGLEWMGGIIPFFGTTNYAQKFQGRVIITADESTNTAYMELSGLRSEDTAVYYCARDRDYYGLGSPFYYYGMDVWGQGTTVTVSS VL: EIVLTQSPDFQSVTPKEKVTITCRASQSIGSSLHWYQQKPDQSPKLLIKYASQSFSGVPSRFSGSGSGTDFTLTINSLEAEDAAAYYCHQSSSLPWTFGQGTKVEIK |
| 40 | 1.1 | 3.6 | 8.4 | 0.56 |  | 36 |  |  |  |  |  | 29D8 antibody (antibody, IgG1, V domains shown) VH: QVQLVQSGAEVKKPGASVKVSCKAFAYTFSTYGISWVRQAPGQGLEWMGWISAYNSNTNYAQKVQGRITMTTDTSTRTAYMELRGLRSDDTAVYFCATFFGGHSGYHYGLDVWGQGTTVTVSS VL: EIVLTQSPATLSLSPGERATLSCRASQSVSSYLAWYQQKPGQAPRLLIYDASNRATGIPARFSGSGSGTDFTLTISSLEPEDFAVYYCQQRSNWPPYTFGQGTKLEIK |
| 480 | 16 | 3.4 | 330 |  |  |  |  |  |  |  |  | 1E4 antibody (antibody, IgG4, V domains shown) VH: QVQLVQSGAEVKKPGASVKVSCKASVYTFTTYGISWVRQAPGQGLEWMGWISVYNGNTNYGQNFQGRVSMTTDTSTSTAYMELRSLRSDDTAVYYCASFHGGHSGYHYGLDVWGQGTTVTVSS VL: EIVLTQSPATLSLSPGERATLSCRASQSVSSYLAWYQQKPGQAPRLLIYDASNRATGIPARFSGSGSGTDFTLTISSLEPEDFAVYYCQQRSNWPPYTFGQGTKLEIK |
|  | 9.2 | 4.2 | 290 |  |  |  |  |  |  |  |  | 31A3 antibody (antibody, IgG1, V domains shown) VH: QVQLVQSGAEVKKPGASVKVSCKASVYTFTTYGISWVRQAPGQGLEWMGWITVYNGNTNYAQKFHGRVTMTTDTSTSTAYMELRSLRSDDTAVYYCASFHGGHSGYHYGLDVWGQGTTVTVSS VL: EIVLTQSPATLSLSPGERATLSCRASQSVSSYLAWYQQKPGQAPRLLIYDASNRATGIPARFSGSGSGTDFTLTISSLEPEDFAVYYCQQRSNWPPYTFGQGTKLEIK |
| 1.6 | 1.1 | 1.4 | 2 | 0.18 |  | 3.9 | 4.5 | 0.0364 | 0.0447 | > 1000 |  | 15E6 antibody (antibody, IgG4, V domains shown, also called 15E6 IgG4) VH: EVQLVESGGGLVQPGRSLRLSCAASGFTFDDYAMHWVRQAPGKGLEWVSGINWNSGGIGYADSVKGRFTISRDNAKNSLYLQMNSLRAEDTALYYCARDMGGFGEFYWNFGLWGRGTLVTVSS VL: not shown |
| 100 | 240 | 50 | 230 |  |  |  |  |  |  |  |  | 8B11 antibody (antibody, IgG3, V domains shown) VH: EVQLVESGGGLVHPGGSLRLSCAASGFTFSSFNMDWVRQAPGKGLEWVSSISTTSRIIYSADSVKGRFTISRDNARNSLYLQMNSLRDEDTAVYYCARVSYYGHGFDYWGQGTLVTVSS VL: DIQMTQSPSSLSASVGDRVTITCRASQGISSWLAWYQQKPEKAPKSLIYAASSLQSGVPSRFSGSGSGTDFTLTISSLQPEDFATYYCQQYNSYPLTFGGGTKVEIK |
